Common to all, as to assay: EMSA; 10 mM Tris-HCl pH 7.5, 1 mM DTT, 50 mM KCl, 5 mM MgCl2, 25% glycerol, 1 ug/ml poly dI-dC, 50-100 fmol biotinylated DNA, 25-30 C, 20 min
Settings in all cases: protein: recombinant; tags: C-terminal V5-6xHis; chain copies: 2; label: 5'-biotin top strand

Series [1] concerns the target T1, DVU2114 response regulator (Desulfovibrio vulgaris Hildenborough, UniProt Q72A83 1-462).
T1 sequence: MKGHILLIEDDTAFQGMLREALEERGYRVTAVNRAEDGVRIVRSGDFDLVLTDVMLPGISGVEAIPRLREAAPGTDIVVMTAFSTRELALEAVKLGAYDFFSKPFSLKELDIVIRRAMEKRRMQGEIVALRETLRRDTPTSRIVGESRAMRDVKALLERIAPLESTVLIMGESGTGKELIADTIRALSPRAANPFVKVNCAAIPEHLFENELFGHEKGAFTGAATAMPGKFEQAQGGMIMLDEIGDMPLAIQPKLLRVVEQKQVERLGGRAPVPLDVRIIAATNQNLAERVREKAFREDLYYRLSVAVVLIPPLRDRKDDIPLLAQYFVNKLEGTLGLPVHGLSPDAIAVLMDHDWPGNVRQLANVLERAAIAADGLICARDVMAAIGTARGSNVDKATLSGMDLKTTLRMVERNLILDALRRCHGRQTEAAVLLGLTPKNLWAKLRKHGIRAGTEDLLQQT

The target of series [2] is T2, DVU1419 response regulator (Desulfovibrio vulgaris Hildenborough, UniProt Q72C65 1-459).
T2 sequence: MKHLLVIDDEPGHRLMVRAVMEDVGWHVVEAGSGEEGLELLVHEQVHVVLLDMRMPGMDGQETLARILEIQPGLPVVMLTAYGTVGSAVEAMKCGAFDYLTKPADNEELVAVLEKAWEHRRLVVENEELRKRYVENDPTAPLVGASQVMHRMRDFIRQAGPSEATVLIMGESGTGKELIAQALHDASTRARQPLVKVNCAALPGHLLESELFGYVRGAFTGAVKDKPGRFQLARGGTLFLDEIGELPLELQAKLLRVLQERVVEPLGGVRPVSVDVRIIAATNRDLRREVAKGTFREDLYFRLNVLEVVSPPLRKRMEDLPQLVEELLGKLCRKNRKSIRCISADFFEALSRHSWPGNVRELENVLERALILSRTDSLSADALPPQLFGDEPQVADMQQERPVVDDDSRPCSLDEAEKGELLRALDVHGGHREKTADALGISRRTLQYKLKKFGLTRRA

Series [3] deals with T3, DVU1063 response regulator (Desulfovibrio vulgaris Hildenborough, UniProt Q72D66 1-479).
T3 sequence: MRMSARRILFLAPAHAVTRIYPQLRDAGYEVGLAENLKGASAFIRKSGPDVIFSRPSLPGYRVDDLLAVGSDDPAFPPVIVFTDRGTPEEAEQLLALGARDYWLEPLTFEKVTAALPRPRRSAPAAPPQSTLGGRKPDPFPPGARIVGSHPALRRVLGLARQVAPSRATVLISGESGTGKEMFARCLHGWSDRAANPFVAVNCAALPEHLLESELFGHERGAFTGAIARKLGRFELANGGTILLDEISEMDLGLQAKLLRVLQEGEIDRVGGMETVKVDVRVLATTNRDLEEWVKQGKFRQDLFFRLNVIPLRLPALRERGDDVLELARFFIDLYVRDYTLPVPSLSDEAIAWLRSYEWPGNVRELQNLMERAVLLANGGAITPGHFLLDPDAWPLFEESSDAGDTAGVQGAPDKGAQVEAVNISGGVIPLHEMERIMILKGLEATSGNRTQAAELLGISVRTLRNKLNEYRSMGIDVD

B1: DVU2116 motif mut (dsDNA)
DNA 1: ACCGGGCCACTACACAAATCAATGCTGCCCATCGC
DNA 2: GCGATGGGCAGCATTGATTTGTGTAGTGGCCCGGT
B1: the binding result in series [1] was “no binding”.

B2: DVU1418 motif mut (dsDNA)
DNA 1: GCCGTGGCGTACTATGCCATCGTTTGCTCGTTCATGGTGC
DNA 2: GCACCATGAACGAGCAAACGATGGCATAGTACGCCACGGC
For the molecule B2, in series [2], the binding result is given as “no binding”.

B3: DVU1032 motif mut (dsDNA)
DNA 1: GGCATGGTCGGGCACGTGTTTTCGATTGTATCCTG
DNA 2: CAGGATACAATCGAAAACACGTGCCCGACCATGCC
Consider B3, for which the binding result in series [3] is on record as “no binding”.

Source of the values: PMC3333781, “Systematic mapping of two component response regulators to gene targets in a model sulfate reducing bacterium”.
